Test results from patent EP4218932A2 (GammaDelta Therapeutics Limited, dated 2023).
Numbering of substitutions follows the chain as printed.

B1: 1252_P01_C08 (antibody, human IgG1, V domains shown)
VH: EVQLLESGGGLVQPGRSLRLSCAASGFTVSSNYMSWVRQAPGKGLEWVSVIYSGGSTYYADSVKGRFTISRDNSKNTLYLQMNSLRAEDTAVYYCASPIELGAFDIWGQGTLVTVSS
VL: SSYELTQPPSVSVAPGKTARITCGGNNIGSQSVHWYQQKPGQAPMLVIYYDSDRPSGIPERFSGSNSGNTATLTISRVEAGDEADYYCQVWDSSSDHVVFGGGTKLTVL
B2: 1139_P01_E04 (antibody, human IgG1, V domains shown)
VH: QVQLQQSGPGLVKPSQTLSLTCAISGDSVSSNSAAWNWIRQSPSRGLEWLGRTYYRSKWYNDYAVSVRSRITINPDTSKNQFSLQLNSVTPEDTAVYYCARSWNDAFDIWGQGTTVTVSS
VL: DIVMTQSPSTLSASIGDRVTITCRAGQSISTWLAWYQQKPGKAPKLLIYDASSLESGVPLRFSGSGSGTDFTLTISSLQPEDFATYYCQQSYSTPLTFGGGTKVEIK
B3: 1245_P01_G09 (antibody, human IgG1, V domains shown)
VH: QVQLQQSGPGLVKPSQTLSLTCAISGDSVSSNSAAWNWIRQSPSRGLEWLGRTYYGSKWYNEYALSVKSRIIINPDTSKNQFSLQLNSVTPEDTAVYYCARDYYYSMDVWGQGTLVTVSS
VL: B2 VL with D70E, T74A, E81D, L96V, G100Q
B4: 1245_P01_G06 (antibody, V domains shown)
VH: QVQLVESGGGLVKPGGSLRLSCAASGFTFSDYYMSWIRQAPGKGLEWVSYISSSGSTIYYADSVKGRFTISRDNAKNSLYLQMNSLRAEDTAVYYCARHSWNDAFDVWGQGTLVTVSS
VL: not shown
B5: 1245_P01_E07 (antibody, human IgG1, V domains shown)
VH: B4 VH with H99V, S100D, W101Y, N102A, V107I
VL: DIQMTQSPSSLSASVGDRVTIACRAGQSIGTYLNWYQQKPGKAPKLLIYVASSLQSGVPSRFSGSGSGTEFTLTISSLQPEDFATYYCQQSYSTLLTFGRGTKVEIK
B6: 1245_P02_G04 (antibody, human IgG1, V domains shown)
VH: QVQLQQSGPGLVKPSQTLSLTCAISGDSVSSKSAAWNWIRQSPSRGLEWLGRTYYRSKWSTDYAASVKSRITINPDTSKNQLSLQLNSVTPEDTAVYYCARTWSGYVDVWGQGTLVTVSS
VL: DIQMTQSPPALSASVGDRVTITCRASQDINDWLAWYQHKPGKAPKLLIYDASSLESGVPSRFSGSGSGTEFTLTISSLQPDDFATYYCQQSYSTPQVTFGQGTRLEIK

What follows are binders tested against Vδ1 chain of the γδ TCR on Vδ1+ γδ T cells (human) (assay: cell-based or functional assay).

First: B1
Second: B5
The “Killing assay (EC50 µg/ml - 2 or 3 donors)” value of the first is 3-fold lower: 0.02 µg/mL for the first, 0.06 µg/mL for the second.

B6 was tested, and the “Killing assay (EC50 µg/ml - 2 or 3 donors)” value was 0.1 µg/mL.

First: B2
Second: B3
The “T cell degranulation (EC50 µg/ml - 3 donors)” value of the first is 5-fold higher: 0.005 µg/mL for the first, 0.001 µg/mL for the second.

Compared with B4, B6 is 2-fold higher in “T cell degranulation (EC50 µg/ml - 3 donors)” value: 0.001 µg/mL for the first, 0.002 µg/mL for the second.
